B1: Interferon-inducible protein AIM2 (Homo sapiens), O14862 (parent)
chain: MESKYKEILLLTGLDNITDEELDRFKFFLSDEFNIATGKLHTANRIQVATLMIQNAGAVSAVMKTIRIFQKLNYMLLAKRLQEEKEKVDKQYKSVTKPKPLSQAEMSPAASAAIRNDVAKQRAAPKVSPHVKPEQKQMVAQQESIREGFQKRCLPVMVLKAKKPFTFETQEGKQEMFHATVATEKEFFFVKVFNTLLKDKFIPKRIIIIARYYRHSGFLEVNSASRVLDAESDQKVNVPLNIIRKAGETPKINTLQTQPLGTIVNGLFVVQKVTEKKKNILFDLSDNTGKMEVLGVRNEDTMKCKEGDKVRLTFFTLSKNGEKLQLTSGVHSTIKVIKAKKKT

Variants of: B1
Details: with asc_human PYCARD

Variant	effect of a mutation on the interaction
K39E	decreasing interaction strength
Y74R	disrupting interaction strength
L10A;L11A	disrupting interaction strength

Second part, the variant after the results:

effect of a mutation on the interaction	Variant
disrupting interaction strength	F27G
decreasing interaction strength	G38E
disrupting interaction strength	D15R
disrupting interaction strength	R24E
